Measurements as given in patent publication US9642898B2, “Use of serine protease inhibitors in the treatment of neutropenia” (Med Discovery S.A., priority 2009, dated 2017).

Tests used:
[1] = test system: neutrophils; experiment: Annexin-V staining / FACS analysis of neutrophil apoptosis in vitro; format: cell-based, human
Method: (§1) To assess viability of neutrophils in-vitro, peripheral blood from healthy donors was erythrocyte-lyzed and neutrophils or peripheral blood mononuclear cells (PBMCs) were isolated. Cultures in RPMI10%FCS were performed in 96 well microtiter plates (5×10^5cells/well) unless otherwise stated. The percentage of apoptotic neutrophils or PBMCs was assessed based on binding of fluorescent Annexin V-protein binding or measuring of CD11b or CD16 surface expression by FACS (fluorescent activated cell sorter) analysis.
(§2) Cells were incubated for 24 or 48 hours with MDPK67b at concentrations ranging from 6 μM to 60 μM, as indicated, or PBS as control. Apoptosis was assessed by Annexin V staining and FACS analysis. Indicated leukocyte populations were gated based on their appearance in a forward scatter/sideward scatter FACS dot plot (neutrophils) or by positive staining for CD3 (T cells).
Neutrophils were incubated for 18 hours with MDPK67b or MDOKG9 concentrations ranging from 60 μM (dilution 1) to […] as indicated. Apoptosis was assessed as outlined above.
Neutrophils were cultured with the indicated concentrations of MDPK67b. PBS without MDPK67b served as a control. Neutrophils were plated (100 μl/well) either at 5×10^6/ml (high density) or 3×10^5/ml (low density) and neutrophil apoptosis was assessed by AnnexinV staining and FACS analysis. Culturing of 5×10^6/ml neutrophils in serum free medium (X-Vivo 15) instead of RPMI10% FCS was assessed in parallel.
(§3) Neutrophils were cultured with the indicated concentrations of MDPK67b in presence or absence of the Src tyrosine kinase inhibitor PP2 (final concentration 10 μM). Apoptosis and relative frequencies of CD11b and CD16 high expressing neutrophils were measured by FACS analysis.
Neutrophils were cultured with the indicated concentrations of G-CSF and neutrophil Apoptosis (FIG. 6A) and down-regulation of CD 16 expression (FIG. 6B) were analyzed by FACS. FIG. 6C: Neutrophils were cultured with MDPK67b (0.6 μM) and titrated amounts of G-CSF (concentrations as indicated). Neutrophils cultured in medium and PBS (without MDPK67b) served as a control.
Cells were incubated during 18 hours with MDPK67b (6 μM) plus Etoposid (125 μg/ml), Etoposid alone or PBS. Apoptosis was assessed by Annexin V staining and FACS analysis. Relevant leukocyte populations were gated based on their appearance in a forward scatter or sideward scatter FACS dot plot.
Cells were incubated for 18 hours with MDPK67b (0.06 μM) alone or MDPK67b (0.06 μM) plus increasing concentrations of Etopsid (in μg/ml) as indicated or PBS. Apoptosis was assessed by Annexin V staining and FACS analysis was performed as mentioned above.

[2] = test system: neutrophils; experiment: CD16 / CD11b surface expression of cultured neutrophils by FACS; format: cell-based, human
Method: as §1
Neutrophils were cultured with the indicated concentrations of MDPK67b and percentage of neutrophils expressing high levels of CD16 or CD11b was assessed by FACS. Representative FACS plots are shown.
as §3

[3] = test system: T cells; experiment: Annexin-V staining / FACS analysis of T cells (CD3 positive); format: cell-based, human; settings: 24 or 48 hours
Method: as §1, §2

[4] = test system: monocytes or lymphocytes; experiment: Annexin-V staining / FACS analysis of monocytes or lymphocytes (PBMCs); format: cell-based, human
Method: as §1, §2

[5] = test system: neutrophils; experiment: Annexin-V staining / FACS analysis of neutrophil apoptosis in vitro; format: cell-based, human; settings: doses ranging from 60 μM down to 0.6 μM; 18, 24 or 48 hours; PBS control
[6] = target: hK2 (Homo sapiens, UniProt P20151); experiment: Inhibition of kallikrein hK2 by chimeric serpin; format: biochemical
Excerpt: These chimeric inhibitor proteins have been obtained by modifying the RSL of α1-antichymotrypsin (rACT), which is known to inhibit a large panel of human enzymes such as chymotrypsin, mast cell chymase , cathepsin G , prostatic kallikreins hK2 and PSA (hK3), in order to change the specificity of this serpin. Peptide sequences, selected as substrates for the enzyme hK2 by phage display technology as explained in International Patent Application PCT/IB2004/001040, have been used to replace the scissile bond and neighbor amino acid residues of the RSL. Recombinant inhibitors were produced in bacteria and purified by affinity chromatography.

[7] = target: hK3 (Homo sapiens, UniProt P07288); experiment: Inhibition of kallikrein hK3 by chimeric serpin; format: biochemical
[8] = neutrophils cultured with MDPK67b plus kinase inhibitor (PP2 final concentration 10 μM)

hK3, sequence (P07288 25-261): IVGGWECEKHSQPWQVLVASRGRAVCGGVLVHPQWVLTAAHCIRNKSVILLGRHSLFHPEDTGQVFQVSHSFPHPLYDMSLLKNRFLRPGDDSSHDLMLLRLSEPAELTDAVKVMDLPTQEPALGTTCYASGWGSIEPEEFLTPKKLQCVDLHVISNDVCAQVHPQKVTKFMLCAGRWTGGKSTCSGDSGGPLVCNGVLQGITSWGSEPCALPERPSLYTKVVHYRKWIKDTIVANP
hK2, sequence (P20151 25-261): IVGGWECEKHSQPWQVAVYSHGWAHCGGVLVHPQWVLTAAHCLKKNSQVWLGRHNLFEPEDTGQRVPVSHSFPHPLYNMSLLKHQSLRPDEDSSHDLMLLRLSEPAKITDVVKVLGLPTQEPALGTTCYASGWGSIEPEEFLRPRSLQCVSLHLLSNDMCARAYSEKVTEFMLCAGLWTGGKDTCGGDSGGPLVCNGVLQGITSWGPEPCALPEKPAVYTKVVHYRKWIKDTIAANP

COc1cc([C@@H]2c3cc4c(cc3[C@@H](O[C@@H]3O[C@@H]5CO[C@@H](C)O[C@H]5[C@H](O)[C@H]3O)[C@H]3COC(=O)[C@H]23)OCO4)cc(OC)c1O [Etoposid, reference compound]
block of the apoptosis reducing effect of MDPK67b ([1]; Etoposid up to 125 μg/ml, 18 hours): only partially block

CC(C)(C)n1nc(-c2ccc(Cl)cc2)c2c(N)ncnc21 [PP2, reference compound]
reversal of the decreased apoptosis in the presence of MDPK67b by kinase inhibitor [1, 8]: can be reversed | reversal of the increased frequency of CD11b high expressing neutrophils in the presence of MDPK67b by kinase inhibitor [2, 8]: can be reversed

B1: G-CSF (protein, UniProt P09919 31-207, looked up)
Granulocyte …: TPLGPASSLPQSFLLKCLEQVRKIQGDGAALQEKLVSECATYKLCHPEELVLLGHSLGIPWAPLSSCPSQALQLAGCLSQLHSGLFLYQGLLQALEGISPELGPTLDTLQLDVADFATTIWQQMEELGMAPALQPTQGAMPAFASAFQRRAGGVLVASHLQSFLEVSYRVLRHLAQP
notes: present agent used for the treatment of neutropenia
effect on neutrophil apoptosis, alone ([1]; G-CSF alone, indicated concentrations): only a mild protecting effect

B2: MDPK67b: chimeric inhibitor protein specific for hK2, modified RSL of α1-antichymotrypsin; amino acid sequence SEQ ID NO 16 (protein)
chain: MHPNSPLDEENLTQENQDRGTHVDLGLASANVDFAFSLYKQLVLKAPDKNVIFSPLSISTALAFLSLGAHNTTLTEILKGLKFNLTETSEAEIHQSFQHLLRTLNQSSDELQLSMGNAMFVKEQLSLLDRFTEDAKRLYGSEAFATDFQDSAAAKKLINDYVKNGTRGKITDLIKDLDSQTMMVLVNYIFFKAKWEMPFDPQDTHQSRFYLSKKKWVMVPMMSLHHLTIPYFRDEELSCTVVELKYTGNASALFILPDQDKMEEVEAMLLPETLKRWRDSLEFREIGELYLPKFSISRDYNLNDILLQLGIEEAFTSKADLSGITGARNLAVSQVVHKAVLDVFEEGTEASAATAVKIKLRTTLVETRTIVRFNRPFLMIIVPTDTQNIFFMSKVTNPKQA
protection of neutrophils from apoptosis compared to G-CSF [1]: Superior Effect | apoptosis of neutrophils under various culture conditions ([1]; 5×10^6/ml (high density) or 3×10^5/ml (low density), RPMI10% FCS or serum free medium (X-Vivo 15)): inhibits apoptosis of neutrophils in vitro independently of cell density and presence or absence of serum | cytostatic drug-induced apoptosis of neutrophils ([1]; 18 hours, MDPK67b (6 μM or 0.06 μM) plus Etoposid): Reduces Cytostatic Drug-induced Apoptosis of Neutrophils | effect of MDPK67b on neutrophil apoptosis in presence of G-CSF ([1]; MDPK67b (0.6 μM) and titrated amounts of G-CSF): not affected by G-CSF | T-cell survival (Annexin V staining) [3]: No Significant Effect on T-cell Survival | apoptosis of monocytes or lymphocytes [4]: did not inhibit apoptosis of monocytes or lymphocytes | frequency of neutrophils that express CD16 and CD11b at high levels ([2]; indicated concentrations of MDPK67b): increases dose-dependently | apoptosis of neutrophils (Annexin V staining) [5]: inhibit apoptosis of neutrophils

B3: MDCI: chimeric inhibitor: P3-P3′ of rACTWT RSL replaced by RSL of Protein C inhibitor; SEQ ID No 14 (protein)
chain: MRGSHHHHHHSRHPNSPLDEENLTQENQDRGTHVDLGLASANVDFAFSLYKQLVLKAPDKNVIFSPLSISTALAFLSLGAHNTTLTEILKGLKFNLTETSEAEIHQSFQHLLRTLNQSSDELQLSMGNAMFVKEQLSLLDRFTEDAKRLYGSEAFATDFQDSAAAKKLINDYVKNGTRGKITDLIKDLDSQTMMVLVNYIFFKAKWEMPFDPQDTHQSRFYLSKKKWVMVPMMSLHHLTIPYFRDEELSCTVVELKYTGNASALFILPDQDKMEEVEAMLLPETLKRWRDSLEFREIGELYLPKFSISRDYNLNDILLQLGIEEAFTSKADLSGITGARNLAVSQVVHKAVLDVFEEGTEASAATAVKITFRSALVETRTIVRFNRPFLMIIVPTDTQNIFFMSKVTNPKQA
inhibition of kallikrein hK2 [6]: able to inhibit | inhibition of kallikrein hK3 [7]: able to inhibit
